The text below walks through data of US20120164161A1 (AFFITECH RESEARCH, published 2012).

Assay [1] has as its target T1, human CC chemokine receptor 4 (CCR4) (human, UniProt P51679 1-360).
T1 sequence (looked up): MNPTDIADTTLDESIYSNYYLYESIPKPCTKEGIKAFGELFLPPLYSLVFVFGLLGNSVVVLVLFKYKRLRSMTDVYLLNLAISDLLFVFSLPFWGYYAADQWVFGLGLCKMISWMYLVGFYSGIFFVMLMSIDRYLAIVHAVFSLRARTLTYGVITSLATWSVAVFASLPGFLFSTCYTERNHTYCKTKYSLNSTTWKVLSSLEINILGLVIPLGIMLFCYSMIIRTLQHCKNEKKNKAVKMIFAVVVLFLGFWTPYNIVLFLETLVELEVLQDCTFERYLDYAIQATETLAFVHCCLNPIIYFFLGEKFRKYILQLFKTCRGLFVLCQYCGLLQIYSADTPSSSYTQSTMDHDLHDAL
As to the kind of experiment: cell-based or functional assay.

For assay [2], the target named is T1, human CC chemokine receptor 4 (CCR4). The assay is described as follows: competition in flow cytometry on CCRF-CEM cells: scFv titrated against 50 nM Alexa647-labelled MDC-SNAP; remaining MDC-SNAP signal (Alexa 647). The procedure: To determine whether the anti-CCR4 antibodies from Example 1 interfere with the binding of CCR4 ligands to the receptor, competition experiments were performed. […] The SNAP-tag is derived from the 20 kDa DNA repair protein 06-alkylguanine-DNA alkyltransferase.
The CCR4+ CCRF-CEM-cells were harvested from culture flasks, washed 2 times with RPMI-1640 culture medium and aliquot 1×10^5 cells per well into V-shaped 96-well plates (Greiner Bio-One, Frickenhausen, Germany). Cells were centrifuged at 500×g for 5 minutes and the supernatant was aspirated.
For orientation: Flow cytometry measures light scatter and fluorescence of single cells or particles in a stream.

The target is the same in assay [3]. As to the kind of experiment: cell-based or functional assay. This is another data set of the same source.

Positions count from the first letter of the chain named.

B1: 208 scFv (scFv, not shown: small tags and cut ends)
scFv: QVQLVQSGAEVKKPGSSVKVSCKASGGTFSSYAMSWVRQAPGQGLEWMGGIIPIFGTVNYAQKFQGRVTMTRDTSTSTVYMELSSLRSDDTAVYYCARRGGSYFDYWGQGTLVTVSSKLSGSASAPKLEEGEFSEARVSYVLTQPPSASGTPGQSVTISCSGSTSNIGSHYVFWYQQLPGTAPRLLIYRNHQRPSGVPDRLSGSKSGTSASLAISGLRSEDEADYYCAVWDAKYRGWVFGGGTKLTVL
Turning to B1, the “IC50 of inhibition of TARC-mediated Ca-Flux in CCRF-CEM cells” value (“IC50 of inhibition … in CCRF-CEM cells” below) in assay [1] is 1.9 pM.

B2: 306 scFv (scFv, not shown: small tags and cut ends)
scFv: B1 scFv with S88P, F173S
Take B2: the “IC50 of inhibition … in CCRF-CEM cells” value in assay [1] amounted to 1.2 pM.

B3: 803 scFv (scFv, not shown: small tags and cut ends)
scFv: QVQLVQSGAEVKKPGSSVKVSCKASGGTFSSYAISWVRQAPGQGLEWMGGIIPIFGTANYAQKFQGRVTMTRDTSTSTVYMELSSLRSEDTAVYYCARRRGAKFDYWGQGTLVTVSSKLSGSASAPKLEEGEFSEARVSYVLTQPPSASGTPGQSVTISCSGSTSNIGSHYVVWYQQLPGTAPRLLIYRNHQRPSGVPDRLSGSKSGTSASLAIGGLRSEDEADYYCAVWDDTLSGWVFGGGTKLTVL
notes: Expressed in TG1 bacteria; also called scFv 803; antibody 803 (single chain form)
For B3, in assay [1], the “IC50 of inhibition … in CCRF-CEM cells” value was 10 pM. Also, in assay [2], the “IC50 (read off the curve)” value is about 200 pM.

B4: 501 scFv (scFv, not shown: small tags and cut ends)
scFv: B3 scFv with G26E, I34M, A58V, E89D, P145Q
notes: Expressed in TG1 bacteria; also called scFv 501; antibody 501 (single chain form)
As for B4, in assay [1], the “IC50 of inhibition … in CCRF-CEM cells” value was determined as 1 pM. Moreover, the “IC50 (read off the curve)” value in assay [2] was about 300 pM.

B5: 406 scFv (scFv, not shown: small tags and cut ends)
scFv: B1 scFv with G26E, F173S
notes: Expressed in TG1 bacteria
Regarding B5, in assay [1], the “IC50 of inhibition … in CCRF-CEM cells” value was 1 pM. In assay [2], the “IC50 (read off the curve)” value is about 100 pM.

B6: 308 scFv (scFv, not shown: small tags and cut ends)
scFv: B1 scFv with S88P
B6: in assay [1], the “IC50 of inhibition … in CCRF-CEM cells” value worked out at 3 pM.

B7: 503 scFv (scFv, not shown: small tags and cut ends)
scFv: B3 scFv with G26E, I34M, A58V, E89D
notes: Expressed in TG1 bacteria
With B7, in assay [1], the “IC50 of inhibition … in CCRF-CEM cells” value was 1.2 pM. The “IC50 (read off the curve)” value in assay [2] is about 300 pM.

B8: 601 scFv (scFv, not shown: small tags and cut ends)
scFv: QVQLVQSGAEVKKPGSSVKVSCKASGGTFSSYAMSWVRQAPGQGLEWMGGIIPIFGTVNYAQKFQGRVTMTRDTSTSTVYMELSSLRSDDTAVYYCARRRGAKFDYWGQGTLVTVSSKLSGSASAPKLEEGEFSEARVSYVLTQQPSASGTPGQSVTISCSGSTSNIGSHYVVWYQQLPGTAPRLLIYRNHQRPSGVPDRLSGSKSGTSASLAIGGLRSEDEADYYCAVWDDTLSGWVFGGGTKLTV
In the case of B8, the “IC50 of inhibition … in CCRF-CEM cells” value in assay [1] turned out to be 3 pM.

B9: KW0761 IgG (antibody, V domains shown)
VH: EVQLVESGGDLVQPGRSLRLSCAASGFIFSNYGMSWVRQAPGKGLEWVATISSASTYSYYPDSVKGRFTISRDNAKNSLYLQMNSLRVEDTALYYCGRHSDGNFAFGYWGQGTLVTVSS
VL: DVLMTQSPLSLPVTPGEPASISCRSSRNIVHINGDTYLEWYLQKPGQSPQLLIYKVSNRFSGVPDRFSGSGSGTDFTLKISRVEAEDVGVYYCFQGSLLPWTFGQGTKVEIK
Regarding B9, in assay [3], the “ADCC on CCRF-CEM cells with human PBMCs, EC50” value is 315 pM; the “ADCC on CCRF-CEM cells, Max. Killing (%; nM IgG)” value is 69.8 % (at 1.4 nM IgG); the “ADCC on L-428 cells with human PBMCs, EC50” value stood at 57 pM; the “ADCC on L-428 cells, Max. Killing (%; nM IgG)” value was 84 % (at 7 nM IgG).
